Measured values published in patent publication US20220332804A1 (CSL INNOVATION, published 2022).

Tests used:
Test in all cases: SPR; KD relative to WT C2;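 note: biacore SPR at 37 °C, anti-C2 mAbs captured on an anti-human IgG chip, alanine or serine C2 surface mutants tested, KD from 1:1 fit compared with wild-type C2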
[1] = target: T1, human C2 Y328A (human, UniProt P06681 21-752)
T1 sequence: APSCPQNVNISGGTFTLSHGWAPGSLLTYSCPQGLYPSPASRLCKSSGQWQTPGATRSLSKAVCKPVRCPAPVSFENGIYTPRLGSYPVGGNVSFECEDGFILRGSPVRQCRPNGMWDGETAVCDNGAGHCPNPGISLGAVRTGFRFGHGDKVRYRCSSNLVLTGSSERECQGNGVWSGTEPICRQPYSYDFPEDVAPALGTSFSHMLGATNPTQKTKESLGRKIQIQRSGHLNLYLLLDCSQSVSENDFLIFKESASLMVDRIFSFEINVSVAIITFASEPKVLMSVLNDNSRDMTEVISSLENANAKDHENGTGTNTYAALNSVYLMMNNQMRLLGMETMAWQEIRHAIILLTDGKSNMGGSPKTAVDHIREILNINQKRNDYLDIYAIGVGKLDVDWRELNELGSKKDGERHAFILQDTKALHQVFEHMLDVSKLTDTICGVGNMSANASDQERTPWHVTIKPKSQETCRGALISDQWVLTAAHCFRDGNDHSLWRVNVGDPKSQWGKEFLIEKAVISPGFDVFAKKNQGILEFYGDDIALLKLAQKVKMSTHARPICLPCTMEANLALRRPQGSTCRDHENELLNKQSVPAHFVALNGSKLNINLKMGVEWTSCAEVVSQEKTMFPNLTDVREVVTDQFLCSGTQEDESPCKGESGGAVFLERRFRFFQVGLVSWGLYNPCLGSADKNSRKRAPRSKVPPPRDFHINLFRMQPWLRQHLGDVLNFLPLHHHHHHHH

[2] = target: T2, human C2 D419A (human, UniProt P06681 21-752)
T2 sequence: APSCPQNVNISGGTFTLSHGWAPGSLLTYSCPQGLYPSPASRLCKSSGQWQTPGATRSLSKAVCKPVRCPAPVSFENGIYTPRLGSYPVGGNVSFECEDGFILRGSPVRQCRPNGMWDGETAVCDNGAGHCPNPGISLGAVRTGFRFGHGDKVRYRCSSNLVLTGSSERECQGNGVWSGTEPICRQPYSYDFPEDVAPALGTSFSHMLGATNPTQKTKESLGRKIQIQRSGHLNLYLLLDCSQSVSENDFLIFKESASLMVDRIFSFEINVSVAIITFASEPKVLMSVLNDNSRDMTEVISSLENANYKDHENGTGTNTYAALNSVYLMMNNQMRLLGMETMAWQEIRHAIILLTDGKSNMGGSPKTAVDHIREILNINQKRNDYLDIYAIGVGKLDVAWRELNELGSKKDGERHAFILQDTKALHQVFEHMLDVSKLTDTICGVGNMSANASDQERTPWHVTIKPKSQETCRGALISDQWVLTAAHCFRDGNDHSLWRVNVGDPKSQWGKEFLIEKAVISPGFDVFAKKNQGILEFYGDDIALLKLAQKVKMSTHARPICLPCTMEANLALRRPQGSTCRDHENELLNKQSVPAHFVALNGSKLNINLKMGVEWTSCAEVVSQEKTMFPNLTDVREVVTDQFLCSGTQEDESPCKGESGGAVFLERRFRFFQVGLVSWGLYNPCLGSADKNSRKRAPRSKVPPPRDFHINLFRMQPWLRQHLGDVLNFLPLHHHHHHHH

[3] = target: T3, human C2 N424A (human, UniProt P06681 21-752)
T3 sequence: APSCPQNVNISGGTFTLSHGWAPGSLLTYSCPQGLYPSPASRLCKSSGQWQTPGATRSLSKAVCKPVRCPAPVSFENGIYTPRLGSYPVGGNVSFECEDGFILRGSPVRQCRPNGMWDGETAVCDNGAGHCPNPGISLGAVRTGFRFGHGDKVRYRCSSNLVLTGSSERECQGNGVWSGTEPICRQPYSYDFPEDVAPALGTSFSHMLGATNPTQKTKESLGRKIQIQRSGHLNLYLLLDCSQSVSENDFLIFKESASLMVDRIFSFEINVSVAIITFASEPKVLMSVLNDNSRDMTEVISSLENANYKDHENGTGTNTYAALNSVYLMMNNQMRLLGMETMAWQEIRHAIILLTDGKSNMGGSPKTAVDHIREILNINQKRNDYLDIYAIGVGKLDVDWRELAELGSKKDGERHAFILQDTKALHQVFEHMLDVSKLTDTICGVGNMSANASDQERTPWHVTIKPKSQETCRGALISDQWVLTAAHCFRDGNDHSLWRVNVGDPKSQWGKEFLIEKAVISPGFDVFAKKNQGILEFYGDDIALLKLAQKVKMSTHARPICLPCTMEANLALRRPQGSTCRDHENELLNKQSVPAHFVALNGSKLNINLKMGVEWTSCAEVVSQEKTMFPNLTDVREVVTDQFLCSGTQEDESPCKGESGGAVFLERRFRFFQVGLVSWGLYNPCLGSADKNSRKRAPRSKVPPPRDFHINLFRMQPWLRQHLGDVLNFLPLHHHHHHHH

[4] = target: T4, human C2 R493A (human, UniProt P06681 21-752)
T4 sequence: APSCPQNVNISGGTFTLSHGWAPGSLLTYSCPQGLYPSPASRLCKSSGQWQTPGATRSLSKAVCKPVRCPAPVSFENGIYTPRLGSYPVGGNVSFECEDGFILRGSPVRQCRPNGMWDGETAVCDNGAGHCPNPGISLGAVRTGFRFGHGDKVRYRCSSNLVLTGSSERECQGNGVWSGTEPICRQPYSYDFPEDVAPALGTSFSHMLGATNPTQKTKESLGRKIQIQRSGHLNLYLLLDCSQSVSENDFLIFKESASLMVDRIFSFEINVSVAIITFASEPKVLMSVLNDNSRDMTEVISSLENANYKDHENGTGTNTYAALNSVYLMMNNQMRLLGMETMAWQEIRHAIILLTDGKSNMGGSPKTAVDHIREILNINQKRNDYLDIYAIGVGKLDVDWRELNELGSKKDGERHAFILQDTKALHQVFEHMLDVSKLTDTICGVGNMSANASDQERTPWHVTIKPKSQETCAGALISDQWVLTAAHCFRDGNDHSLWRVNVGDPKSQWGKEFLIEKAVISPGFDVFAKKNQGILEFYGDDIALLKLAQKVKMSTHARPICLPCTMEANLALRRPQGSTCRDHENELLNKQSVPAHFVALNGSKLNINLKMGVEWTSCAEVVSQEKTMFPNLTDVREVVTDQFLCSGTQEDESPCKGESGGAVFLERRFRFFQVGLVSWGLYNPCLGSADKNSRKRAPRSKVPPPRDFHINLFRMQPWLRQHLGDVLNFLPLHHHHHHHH

Fold diff [1]: 6 fold
Fold diff [2]: 2 fold
Fold diff [3]: 1 fold
Fold diff [4]: 1 fold
B1: RF16-214 (antibody, V domains shown)
VH: EVQLLESGGGLVQPGGSLRLSCAASGFTFSWYQMMWVRQAPGKGLEWVSRIYPSGGGTAYADSVKGRFTISRDNSKNTLYLQMNSLRAEDTAVYYCARDAGYGDNWGQGTLVTVSS
VL: QSALTQPPSVSVSPGQTASITCSGDKLGEKYASWYQQKAGQSPVMVIYQDRKRPSGIPERFSGSNSGNTATLTISGTQAMDEADYYCQAWDTRAVVFGGGTKLTVLG
